Test results reported in patent US20260217793A1 (Chugai, published 2026).

Key:
[1] = biological target: T1, FcγRIIa type H extracellular domain with C-terminal His tag (human, UniProt P12318 34-217); test: SPR
T1 sequence (looked up): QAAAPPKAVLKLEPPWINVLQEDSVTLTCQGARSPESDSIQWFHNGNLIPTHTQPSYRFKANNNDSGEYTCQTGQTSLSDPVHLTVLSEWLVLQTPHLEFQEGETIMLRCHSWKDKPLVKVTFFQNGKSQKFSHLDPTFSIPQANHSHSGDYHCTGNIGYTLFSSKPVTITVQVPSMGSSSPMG

[2] = biological target: FcγRIIIa type V extracellular domain with C-terminal His tag (human, UniProt P08637 17-208); test: SPR
[3] = biological target: T2, FcγRIIb extracellular domain with C-terminal His tag (human, UniProt P31994 43-217); test: ratio of SPR KDs vs IL6R-B3/IL6R-L
T2 sequence (looked up): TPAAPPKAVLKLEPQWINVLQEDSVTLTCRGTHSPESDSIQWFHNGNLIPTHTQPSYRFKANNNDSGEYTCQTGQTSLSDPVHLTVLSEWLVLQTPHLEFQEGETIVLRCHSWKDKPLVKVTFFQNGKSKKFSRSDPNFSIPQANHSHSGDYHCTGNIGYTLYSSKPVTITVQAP

[4] = biological target: T3, FcγRIIa type R extracellular domain with C-terminal His tag (human, UniProt P12318 34-217); test: ratio of SPR KDs vs IL6R-B3/IL6R-L
T3 sequence (looked up): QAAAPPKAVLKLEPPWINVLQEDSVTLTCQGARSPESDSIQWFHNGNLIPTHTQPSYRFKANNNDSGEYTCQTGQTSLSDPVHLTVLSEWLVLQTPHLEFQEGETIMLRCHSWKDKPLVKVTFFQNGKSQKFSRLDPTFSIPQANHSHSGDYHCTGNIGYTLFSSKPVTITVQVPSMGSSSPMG

[5] = biological target: T2, FcγRIIb extracellular domain with …; test: ratio of SPR KDs, FcγRIIaR over FcγRIIb, same variant
[6] = biological target: T4, human FcγRIIb extracellular domain with C-terminal His tag (human, UniProt P31994 43-217); test: SPR
T4 sequence (looked up): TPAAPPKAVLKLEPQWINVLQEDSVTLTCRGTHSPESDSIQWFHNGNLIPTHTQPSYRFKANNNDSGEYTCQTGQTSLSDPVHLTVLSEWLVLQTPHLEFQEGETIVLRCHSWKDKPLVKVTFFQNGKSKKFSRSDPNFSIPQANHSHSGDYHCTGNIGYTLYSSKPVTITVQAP

[7] = biological target: T4, human FcγRIIb extracellular domain with …; test: SPR; remark: listed apart in the source
[8] = biological target: human FcγRIIIa type V (Val158) extracellular domain with C-terminal His tag (human, UniProt P08637 17-208); test: SPR
[9] = biological target: T5, human FcγRIIa type R (Arg131) extracellular domain with C-terminal His tag (human, UniProt P12318 34-217); test: SPR
T5 sequence (looked up): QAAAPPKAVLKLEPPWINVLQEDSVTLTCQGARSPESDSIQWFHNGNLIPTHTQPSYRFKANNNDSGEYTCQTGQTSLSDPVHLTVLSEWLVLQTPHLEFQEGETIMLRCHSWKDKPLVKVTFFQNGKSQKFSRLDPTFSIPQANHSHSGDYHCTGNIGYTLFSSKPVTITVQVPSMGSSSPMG

[10] = biological target: T4, human FcγRIIb extracellular domain with …; test: SPR; remark: listed apart in the source
[11] = biological target: human FcγRIa extracellular domain with C-terminal His tag (human, UniProt P12314 16-292); test: SPR
[12] = biological target: T4, human FcγRIIb extracellular domain with …; test: SPR; remark: listed apart in the source
[13] = biological target: T5, human FcγRIIa type R (Arg131) …; test: SPR; remark: listed apart in the source
[14] = biological target: T6, human FcγRIIa type H (His131) extracellular domain with C-terminal His tag (human, UniProt P12318 34-217); test: SPR
T6 sequence (looked up): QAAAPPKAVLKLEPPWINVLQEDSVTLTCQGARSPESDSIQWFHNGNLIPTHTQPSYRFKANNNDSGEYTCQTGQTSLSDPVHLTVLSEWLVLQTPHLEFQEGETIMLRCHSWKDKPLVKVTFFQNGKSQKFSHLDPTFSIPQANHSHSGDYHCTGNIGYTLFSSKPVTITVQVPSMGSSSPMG

Chain of human FcγRIIIa type V (Val158) extracellular domain with C-terminal His tag (P08637 17-208 F176V): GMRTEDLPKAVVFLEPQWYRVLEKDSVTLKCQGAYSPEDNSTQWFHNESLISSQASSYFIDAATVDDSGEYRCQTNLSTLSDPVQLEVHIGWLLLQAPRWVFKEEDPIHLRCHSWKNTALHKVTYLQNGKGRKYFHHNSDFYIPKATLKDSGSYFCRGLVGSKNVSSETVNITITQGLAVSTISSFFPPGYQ
Chain of FcγRIIIa type V extracellular domain with C-terminal His tag (P08637 17-208 F176V): as above
Chain of human FcγRIa extracellular domain with C-terminal His tag (P12314 16-292): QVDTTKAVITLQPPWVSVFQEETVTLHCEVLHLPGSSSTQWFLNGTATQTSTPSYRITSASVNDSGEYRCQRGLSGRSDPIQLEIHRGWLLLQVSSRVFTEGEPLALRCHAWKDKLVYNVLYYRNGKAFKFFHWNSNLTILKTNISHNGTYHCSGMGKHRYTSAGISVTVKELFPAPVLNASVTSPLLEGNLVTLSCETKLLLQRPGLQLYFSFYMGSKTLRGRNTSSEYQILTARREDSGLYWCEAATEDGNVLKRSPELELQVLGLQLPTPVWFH

B1: IL6R-BP546/IL6R-L (antibody, human IgG1, kappa)
heavy: QVQLQESGPGLVKPSETLSLTCAVSGHSISHDHAWSWVRQPPGEGLEWIGFISYSGITNYNPSLQGRVTISRDNSKNTLYLQMNSLRAEDTAVYYCARSLARTTAMDYWGEGTLVTVSSASTKGPSVFPLAPSSKSTSGGTAALGCLVKDYFPEPVTVSWNSGALTSGVHTFPAVLQSSGLYSLSSVVTVPSSSLGTQTYICNVNHKPSNTKVDKKVEPKSCDKTHTCPPCPAPDLLGDDSVFLFPPKPKDTLMISRTPEVTCVVVDVSDEDGEVKFNWYVDGVEVHNAKTKPREEQDNSTYRVVSVLTVLHQDWLNGKEYKCKVSNKALPRPIEKTISKAKGQPREPQVYTLPPSRDEMTKNQVSLTCLVKGFYPSDIAVEWESNGQPENNYKTTPPVLDSDGSFFLYSKLTVDKSRWQQGNVFSCSVMHEALHNHYTQESLSLSP
light: not shown
Kd [1]: 10 µM
Kd [2]: 37 µM
KD (IIb) of parent polypeptide/KD (IIb) of altered polypeptide [3]: 205
KD (IIaR) of parent polypeptide/KD (IIaR) of altered polypeptide [4]: 2.2
KD (IIaR)/KD (IIb) [5]: 32.8

B2: IL6R-BP548/IL6R-L (antibody, human IgG1, kappa)
heavy: QVQLQESGPGLVKPSETLSLTCAVSGHSISHDHAWSWVRQPPGEGLEWIGFISYSGITNYNPSLQGRVTISRDNSKNTLYLQMNSLRAEDTAVYYCARSLARTTAMDYWGEGTLVTVSSASTKGPSVFPLAPSSKSTSGGTAALGCLVKDYFPEPVTVSWNSGALTSGVHTFPAVLQSSGLYSLSSVVTVPSSSLGTQTYICNVNHKPSNTKVDKKVEPKSCDKTHTCPPCPAPDLLGDDSVFLFPPKPKDTLMISRTPEVTCVVVDVSDEDGEVKFNWYVDGVEVHNAKTKPREEQDNSTYRVVSVLTVLHQDWLNGKEYKCKVSNKALPRPIEKTISKAKGQPREPQVYTLPPSRDELTKNQVSLTCLVKGFYPSDIAVEWESNGQPENNYKTTPPVLDSDGSFFLYSKLTVDKSRWQEGNVFSCSVMHEALHNHYTQESLSLSP
light: not shown
Kd [1]: 9.4 µM
Kd [2]: 34 µM
KD (IIb) of parent polypeptide/KD (IIb) of altered polypeptide [3]: 162
KD (IIaR) of parent polypeptide/KD (IIaR) of altered polypeptide [4]: 2.2
KD (IIaR)/KD (IIb) [5]: 26.2

B3: IL6R-BP533/IL6R-L (antibody, human IgG1, kappa)
heavy: QVQLQESGPGLVKPSETLSLTCAVSGHSISHDHAWSWVRQPPGEGLEWIGFISYSGITNYNPSLQGRVTISRDNSKNTLYLQMNSLRAEDTAVYYCARSLARTTAMDYWGEGTLVTVSSASTKGPSVFPLAPSSKSTSGGTAALGCLVKDYFPEPVTVSWNSGALTSGVHTFPAVLQSSGLYSLSSVVTVPSSSLGTQTYICNVNHKPSNTKVDKKVEPKSCDKTHTCPPCPAPDLLGDDSVFLFPPKPKDTLMISRTPEVTCVVIDVGEEDGEVKFNWYVDGVEVHNAKTKPREEQDNSTYRVVSVLTVLHQDWLNGKEYKCKVSNKALPRPIEKTISKAKGQPREPQVYTLPPSRDELTKNQVSLTCLVKGFYPSDIAVEWESNGQPENNYKTTPLVLDSDGSFFLYSKLTVDKSRWQQGNVFSCSVMHEALHNHYTQESLSLSP
light: not shown
KD (IIaR)/KD (IIb) [6]: 28.3
KD (IIb) of parent polypeptide/KD (IIb) of altered polypeptide [7]: 756
Kd [8]: 27 µM

B4: IL6R-BP539/IL6R-L (antibody, human IgG1, kappa)
heavy: QVQLQESGPGLVKPSETLSLTCAVSGHSISHDHAWSWVRQPPGEGLEWIGFISYSGITNYNPSLQGRVTISRDNSKNTLYLQMNSLRAEDTAVYYCARSLARTTAMDYWGEGTLVTVSSASTKGPSVFPLAPSSKSTSGGTAALGCLVKDYFPEPVTVSWNSGALTSGVHTFPAVLQSSGLYSLSSVVTVPSSSLGTQTYICNVNHKPSNTKVDKKVEPKSCDKTHTCPPCPAPELLGDDSVFLFPPKPKDTLMISRTPEVTCVVIDVGEEDGPVKFNWYVDGVEVHNAKTKPREEQDNSTYRVVSVLTVLHQDWLNGKEYKCKVSNKALPRPIEKTISKAKGQPREPQVYTLPPSRDELTKNQVSLTCLVKGFYPSDIAVEWESNGQPENNYKTTPPVLDSDGSFFLYSKLTVDKSRWQQGNVFSCSVMHEALHNHYTQESLSLSP
light: not shown
KD (IIaR)/KD (IIb) [6]: 38
KD (IIb) of parent polypeptide/KD (IIb) of altered polypeptide [7]: 369
KD (IIaR) of parent polypeptide/KD (IIaR) of altered polypeptide [9]: 3.4
Kd [8]: 34 µM

B5: IL6R-BP550/IL6R-L (antibody, human IgG1, kappa)
heavy: QVQLQESGPGLVKPSETLSLTCAVSGHSISHDHAWSWVRQPPGEGLEWIGFISYSGITNYNPSLQGRVTISRDNSKNTLYLQMNSLRAEDTAVYYCARSLARTTAMDYWGEGTLVTVSSASTKGPSVFPLAPSSKSTSGGTAALGCLVKDYFPEPVTVSWNSGALTSGVHTFPAVLQSSGLYSLSSVVTVPSSSLGTQTYICNVNHKPSNTKVDKKVEPKSCDKTHTCPPCPAPELLGDDSVFLFPPKPKDTLMISRTPEVTCVVIDVGEEDGDVKFNWYVDGVEVHNAKTKPREEQDNSTYRVVSVLTVLHQDWLNGKEYKCKVSNKALPRPIEKTISKAKGQPREPQVYTLPPSRDELTKNQVSLTCLVKGFYPSDIAVEWESNGQPENNYKTTPPVLDSDGSFFLYSKLTVDKSRWQQGNVFSCSVMHEALHNHYTQESLSLSP
light: not shown
KD (IIb) of parent polypeptide/KD (IIb) of altered polypeptide [7]: 406
KD (IIaR) of parent polypeptide/KD (IIaR) of altered polypeptide [9]: 3.3
KD (IIaH)/KD (IIb) [10]: 656
Kd [8]: 48 µM

B6: IL6R-BP558/IL6R-L (antibody, human IgG1, kappa)
heavy: QVQLQESGPGLVKPSETLSLTCAVSGHSISHDHAWSWVRQPPGEGLEWIGFISYSGITNYNPSLQGRVTISRDNSKNTLYLQMNSLRAEDTAVYYCARSLARTTAMDYWGEGTLVTVSSASTKGPSVFPLAPSSKSTSGGTAALGCLVKDYFPEPVTVSWNSGALTSGVHTFPAVLQSSGLYSLSSVVTVPSSSLGTQTYICNVNHKPSNTKVDKKVEPKSCDKTHTCPPCPAPELLGDDSVFLFPPKPKDTLMISRTPEVTCVVIDVGEEDGDVKFNWYVDGVEVHNAKTKPREEQYNSTYRVVSVLTVLHQDWLNGKEYKCKVSNKALPRPIEKTISKAKGQPREPQVYTLPPSRDELTKNQVSLTCLVKGFYPSDIAVEWESNGQPENNYKTTPPVLDSDGSFFLYSKLTVDKSRWQQGNVFSCSVMHEALHNHYTQESLSLSP
light: not shown
Kd [11]: 0.015 µM
Kd [8]: 36 µM

B7: IL6R-BP567/IL6R-L (antibody, human IgG1, kappa)
heavy: QVQLQESGPGLVKPSETLSLTCAVSGHSISHDHAWSWVRQPPGEGLEWIGFISYSGITNYNPSLQGRVTISRDNSKNTLYLQMNSLRAEDTAVYYCARSLARTTAMDYWGEGTLVTVSSASTKGPSVFPLAPSSKSTSGGTAALGCLVKDYFPEPVTVSWNSGALTSGVHTFPAVLQSSGLYSLSSVVTVPSSSLGTQTYICNVNHKPSNTKVDKKVEPKSCDKTHTCPPCPAPDLLGGDSVFLFPPKPKDTLMISRTPEVTCVVIDVAEEDGEVKFNWYVDGVEVHNAKTKPREEQDNSTYRVVSVLTVLHQDWLNGKEYKCKVSNKALPAPIEKTISKAKGQPREPQVYTLPPSRDELTKNQVSLTCLVKGFYPSDIAVEWESNGQPENNYKTTPPVLDSDGSFFLYSKLTVDKSRWQQGNVFSCSVMHEALHNHYTQESLSLSP
light: not shown
KD (IIaR)/KD (IIb) [6]: 64.4
Kd [11]: 0.00021 µM
Kd [12]: 0.014 µM
Kd [13]: 0.89 µM
KD (IIb) of parent polypeptide/KD (IIb) of altered polypeptide [7]: 225
KD (IIaR) of parent polypeptide/KD (IIaR) of altered polypeptide [9]: 1.2
KD (IIaH)/KD (IIb) [10]: 1230
Kd [8]: 39 µM
Kd [14]: 17 µM
